Assay results published in US20210023121A1, “THROMBIN-RESPONSIVE HYDROGELS AND DEVICES FOR AUTO-ANTICOAGULANT REGULATION” (North Carolina State University, priority 2017, published 2021).

Biological target: T1, thrombin (Bos taurus, UniProt P00735)
T1 construct: purchased Sigma-Aldrich
Experiment: LC-MS analysis of peptide cleavage by thrombin
Type: biochemical
Details: 12 h incubation with 1 U mL^-1 thrombin in Tris buffer pH 7.4
Protocol: LC-MS analysis of peptide cleavage. Peptide with sequence GGLVPR|GSGGC (SEQ ID NO:1) was incubated with thrombin (1 U/mL) in Tris buffer (20 mM Tris, 150 mM NaCl, 2.5 mM KCl, pH 7.4) for 12 h.

GGLVPRGSGGC [thrombin cleavable peptide, linker peptide cleaved by thrombin between Arg and Gly]
cleavage of the peptide by thrombin (LCMS): efficiently cleaved
